Results: publication PMC5044835, “Crystal Structure of the Human Astrovirus Capsid Protein” (Journal of Virology, 2016)

Target: the molecule itself
Experiment: not stated; data not shown; oligomeric state of recombinant VP70 expressed in insect cells or E. coli

Row | Protein | stoichiometry N
1 | astrovirus VP70 expressed in insect cells (natural protein, construct, tags and purification are not described; source: insect cells) MASKSDKQVTVEVNNNGRSRSKSRARSQSRGRGRSVKITVNSHNKGRRQNGRNKYQSNQRVRKIVNKQLRKQGVTGPKPAICQTATATLGTIGSNTTGATEIEACILLNPVLVKDATGSTQFGPVQALGAQYSMWKLKYLNVRLTSMVGASAVNGTVVRISLNPTSTPSSTSWSGLGARKHLDVTVGKNAVFKLKPSDLGGPRDGWWLTNTNDNASDTLGPSIEIHTLGQTMSSYQNTQFTGGLFLVELSSAWCFTGYAANPNLVNLVKSTDKSVNVTFEGSAGTPLIMNVPEHSHFARTAVEHSSLSTSLSRAGGESSSDTVWQVLNTAVSAAELVTPPPFNWLVKGGWWFVKLIAGRARTGARRFYVYLSYQDALSNKPALCTGGVPASARQSNPVRTTLQFTQMNQPSLGHGATPMTFGRSIPEPGEQFRVLLTVGPPMAPNTANSQNWVNKTIVPPENQYTVKIGIDLEHYTTMQGFTPVESVSWYTADFQPSDEPSPIPGLYARVNNTKKADVYGVQQFKSSHTNNRHQITSVFLVRVTTSFQVINYTSYFIRGAESGSNVSNLKIRDQTYHTPLQFTQGKWYLLTSTVMHDGPTSSGWVWMNQELTNNIAYRVDPGMMYLITPPPAASQLYFELHTVLPQARSEEPETYVD | 2
2 | astrovirus VP70 expressed in E. coli (natural protein, construct, tags and purification are not described; source: E. coli) MASKSDKQVTVEVNNNGRSRSKSRARSQSRGRGRSVKITVNSHNKGRRQNGRNKYQSNQRVRKIVNKQLRKQGVTGPKPAICQTATATLGTIGSNTTGATEIEACILLNPVLVKDATGSTQFGPVQALGAQYSMWKLKYLNVRLTSMVGASAVNGTVVRISLNPTSTPSSTSWSGLGARKHLDVTVGKNAVFKLKPSDLGGPRDGWWLTNTNDNASDTLGPSIEIHTLGQTMSSYQNTQFTGGLFLVELSSAWCFTGYAANPNLVNLVKSTDKSVNVTFEGSAGTPLIMNVPEHSHFARTAVEHSSLSTSLSRAGGESSSDTVWQVLNTAVSAAELVTPPPFNWLVKGGWWFVKLIAGRARTGARRFYVYLSYQDALSNKPALCTGGVPASARQSNPVRTTLQFTQMNQPSLGHGATPMTFGRSIPEPGEQFRVLLTVGPPMAPNTANSQNWVNKTIVPPENQYTVKIGIDLEHYTTMQGFTPVESVSWYTADFQPSDEPSPIPGLYARVNNTKKADVYGVQQFKSSHTNNRHQITSVFLVRVTTSFQVINYTSYFIRGAESGSNVSNLKIRDQTYHTPLQFTQGKWYLLTSTVMHDGPTSSGWVWMNQELTNNIAYRVDPGMMYLITPPPAASQLYFELHTVLPQARSEEPETYVD | 2
